Results published in patent US20140120058A1, “POLYMER CONJUGATED PROSTAGLANDIN ANALOGUES” (POLYACTIVA PTY LTD, priority 2011, published 2014).

Assay: In vitro drug release from melt-extruded rods in isotonic phosphate buffer
Format: physicochemical
Details: rod-shaped samples, isotonic phosphate buffer pH 7.4, 37° C.; for Release Rate (ng of free acid Latanoprost/mg polymer drug conjugate/24 hours): continuous stirring, HPLC-UV
Experimental: Following in vitro release guidelines recommended by the International Organisation of Standardisation, rod-shaped samples prepared by melt extrusion, were suspended in wire baskets which were immersed in isotonic phosphate buffer (IPB), adjusted to pH 7.4 using orthophosphoric acid and containing 0.01% sodium azide as a preservative, and incubated at 37° C. with continuous stirring. Aliquots of the receptor solution were removed for analysis at predetermined time points until drug release from the polymer no longer increased.
The amount of prostaglandin drug released from the rods at the various time points was quantified by reverse phase high performance liquid chromatography (HPLC) with a UV absorbance detector and analyte separation was performed on a C18 column either isocratically or with a gradient system using a degassed mobile phase.
Using the above method, the rate of release of the prostaglandin drug latanoprost from various polymer-drug conjugates was determined.

Substance	Period of zero-order release [days]	Release Rate (ng of free acid Latanoprost/mg polymer drug conjugate/24 hours)
Polyurethane of (Z)-1,3-dihydroxypropan-2-yl 7-((1R,2R,3R,5S)-3,5-dihydroxy-2-((R)-3-hydroxy-5-phenylpentyl)cyclopentyl)hept-5-enoate and DVDIP [Example 12]	61	637 ng of free acid Latanoprost/mg
Polyurethane of (Z)-1,3-dihydroxypropan-2-yl 7-((1R,2R,3R,5S)-3,5-dihydroxy-2-((R)-3-hydroxy-5-phenylpentyl)cyclopentyl)hept-5-enoate and ELDI [Example 10]	61	899 ng of free acid Latanoprost/mg
Polyurethane of (Z)-3-hydroxy-2-(hydroxymethyl)-2-methylpropyl 7-((1R,2R,3R,5S)-3,5-dihydroxy-2-((R)-3-hydroxy-5-phenylpentyl)cyclopentyl)hept-5-enoate and DVDIP [Example 16]	61	138 ng of free acid Latanoprost/mg
